# Where a SMILES comes first, the peptide text is derived from it. Bridges are numbered along the chain shown (N, C = ends). The star is where a group is joined. DOTA = O=C(O)CN1CCN(CC(=O)O)CCN(CC(=O)*)CCN(CC(=O)O)CC1
# How the values were obtained:
# [1] = Biodistribution, HNO97 xenografts; details: Balb/c nude, mouse, iv, 1 MBq, total radioactivity; for tissue to tissue ratio at 0.5 h / tissue to tissue ratio at 1 h / tissue to tissue ratio at 2 h / tissue to tissue ratio at 4 h / tissue to tissue ratio at 6 h: HNO97 xenografts; for tissue to tissue ratio at 0.5 h: 30 min
# Method: All experiments were conducted in compliance with the German animal protection laws. Eight week old Balb c/c nude mice (Charles River Laboratories) were inoculated subcutaneously at the right shoulder with 5×10^6 HNO97 cells in BD MatriGel™ (BD Bioscience). Xenografts were grown to a tumor diameter of 10-15 mm. For small animal-PET imaging mice were anesthetized using isoflurane inhalation and injected via tail-vein with 50 MBq (2 nmol) of the ^68Ga-labeled DOTA-SFITGv6 peptide (see above) solution in 100 μL PBS. Images were recorded on an Inveon small-animal PET scanner (Siemens) using a 60 min emission scan in list mode and a 10 min transmission scan. Images were taken in 3-dimensional (3D) mode and reconstructed iteratively with a fully 3D algorithm from a 256×256 matrix for viewing transaxial, coronal, and sagittal slices of 0.9 mm thickness. Pixel size was 0.38×0.38×0.79 mm3 and transaxial resolution obtained was 0.9 mm. For blocking experiments 100 μL of a 1 mM aqueous solution of SFITGv6 was pre-administered intraperitoneally 30 min before injection of the radiolabeled peptide. Biodistribution studies were performed after administration of 100 μL of a 20 nM ^177Lu-DOTA-SFITGv6 solution (1 MBq) as an intravenous bolus injection into the tail vein of the mice. After different time points (30 min to 6 hours) three animals, respectively, were sacrificed. Peripheral blood, heart, lung, spleen, liver, kidneys, muscle, brain, intestine, and injection site (tail, after intravenous injection only) were collected and weighted. Tissue-associated radioactivity was measured in a gamma counter (Berthold LB951G) and expressed as percentage of the injected dose per gram tissue (% ID/g).
# All animal experiments were conducted in compliance with the German animal protection laws. For in vivo small animal PET imaging and organ distribution studies eight-week old Balb/c nude mice (Charles River Laboratories) were inoculated subcutaneously at the right shoulder with a total of 5×10^6 tumor cells in MatriGel (BD Bioscience). Xenografts were grown until a tumor diameter of 10-15 mm was reached.
# 3-dimensional (3D) PET images of whole mice were captured by the Siemens Inveon PET scanner as described in Example 1. To assess the biodistribution 100 μL of a 20 nM solution (1 MBq) of ^177Lu-DOTA-SFLAP3 and ^177Lu-DOTA-SFITGv6 were administered as an intravenous bolus injection into the tail vein of mice. For each time point (30 min to 6 hours) we sacrificed a total of three animals, and subsequently collected peripheral blood, heart, lung, spleen, liver, kidneys, muscle, brain, and intestine. Tissues were weighed and respective radioactivity was measured by a gamma counter (LB951G, Berthold Technologies). Values were expressed as percentage of the injected dose radioactivity (MBq) per gram tissue (% ID/g).
# carcinoma cell lines = test: In vitro binding of radiolabeled peptides to several carcinoma cell lines; format: cell-based, human; details: after 240 min (FIG. 17C)
# Method in brief: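 Cells seeded 48 h were incubated with ^125I-labeled peptide in serum-free medium for 10 or 60 min, alone or with unlabeled peptide (10^−4 to 10^−11 M); HNO97 kinetics, efflux and internalization (37° C and 4° C, acid strip) used ^177Lu-DOTA-SFITGv6. Gamma counting gave % applied dose per 10^6 cells.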
# [2] = in vivo, Tumor-to-Intestine ratio
structure (smiles),measurement,setting,value
"CSCC[C@@H]1NC(=O)[C@H](CC(C)C)NC(=O)[C@H](CC(=O)O)NC(=O)CNC(=O)[C@H](CCCNC(=N)N)NC(=O)[C@H](Cc2ccccc2)NC(=O)[C@H]([C@@H](C)O)NC(=O)[C@@H](NC(=O)[C@H](CCCNC(=N)N)NC(=O)CNC(=O)CN2CCN(CC(=O)O)CCN(CC(=O)O)CCN(CC(=O)O)CC2)CSSC[C@@H](C(=O)N[C@@H](Cc2ccc(O)cc2)C(=O)N2CCC[C@H]2C(=O)N[C@@H](CC(=O)O)C(=O)O)NC(=O)[C@H](CC(C)C)NC(=O)[C@H](CCC(N)=O)NC1=O [^177Lu-DOTA-SFITGv6, metal not drawn] ({DOTA}-GRCTFRGDLMQLCYPD-OH; disulfide 3-13)",tissue to tissue ratio at 0.5 h,"[1]; in vivo, Tumor-to-Blood ratio",6.89 ± 1
same,tissue to tissue ratio at 1 h,"[1]; in vivo, Tumor-to-Blood ratio",12.9 ± 0.83
same,tissue to tissue ratio at 2 h,"[1]; in vivo, Tumor-to-Blood ratio",59.5 ± 1.04
same,tissue to tissue ratio at 4 h,"[1]; in vivo, Tumor-to-Blood ratio",98.86 ± 0.35
same,tissue to tissue ratio at 6 h,"[1]; in vivo, Tumor-to-Blood ratio",99.15 ± 0.51
same,tissue to tissue ratio at 0.5 h,"[1]; in vivo, Tumor-to-Brain ratio",190.9 ± 1
same,tissue to tissue ratio at 1 h,"[1]; in vivo, Tumor-to-Brain ratio",198.6 ± 0.82
same,tissue to tissue ratio at 2 h,"[1]; in vivo, Tumor-to-Brain ratio",250.3 ± 1.04
same,tissue to tissue ratio at 4 h,"[1]; in vivo, Tumor-to-Brain ratio",372.6 ± 0.35
same,tissue to tissue ratio at 6 h,"[1]; in vivo, Tumor-to-Brain ratio",424.9 ± 0.51
same,tissue to tissue ratio at 0.5 h,"[1]; in vivo, Tumor-to-Heart ratio",15.1 ± 1
same,tissue to tissue ratio at 1 h,"[1]; in vivo, Tumor-to-Heart ratio",21.9 ± 0.82
same,tissue to tissue ratio at 2 h,"[1]; in vivo, Tumor-to-Heart ratio",48.8 ± 1.04
same,tissue to tissue ratio at 4 h,"[1]; in vivo, Tumor-to-Heart ratio",67.5 ± 0.36
same,tissue to tissue ratio at 6 h,"[1]; in vivo, Tumor-to-Heart ratio",78.99 ± 0.51
same,tissue to tissue ratio at 0.5 h,[1]; [2],4.59 ± 1
same,tissue to tissue ratio at 1 h,[1]; [2],3.42 ± 0.83
same,tissue to tissue ratio at 2 h,[1]; [2],9.44 ± 1.05
same,tissue to tissue ratio at 4 h,[1]; [2],10.7 ± 0.36
same,tissue to tissue ratio at 6 h,[1]; [2],7.82 ± 0.51
same,tissue to tissue ratio at 0.5 h,"[1]; in vivo, Tumor-to-Kidney ratio",0.15 ± 3.73
same,tissue to tissue ratio at 1 h,"[1]; in vivo, Tumor-to-Kidney ratio",0.12 ± 2.21
same,tissue to tissue ratio at 2 h,"[1]; in vivo, Tumor-to-Kidney ratio",0.1 ± 3.11
same,tissue to tissue ratio at 4 h,"[1]; in vivo, Tumor-to-Kidney ratio",0.07 ± 2.69
same,tissue to tissue ratio at 6 h,"[1]; in vivo, Tumor-to-Kidney ratio",0.06 ± 2.58
same,tissue to tissue ratio at 0.5 h,"[1]; in vivo, Tumor-to-Liver ratio",20.8 ± 1
same,tissue to tissue ratio at 1 h,"[1]; in vivo, Tumor-to-Liver ratio",21.5 ± 0.82
same,tissue to tissue ratio at 2 h,"[1]; in vivo, Tumor-to-Liver ratio",25.8 ± 1.04
same,tissue to tissue ratio at 4 h,"[1]; in vivo, Tumor-to-Liver ratio",32.2 ± 0.36
same,tissue to tissue ratio at 6 h,"[1]; in vivo, Tumor-to-Liver ratio",17.6 ± 0.51
same,tissue to tissue ratio at 0.5 h,"[1]; in vivo, Tumor-to-Lung ratio",2.29 ± 1.14
same,tissue to tissue ratio at 1 h,"[1]; in vivo, Tumor-to-Lung ratio",3.81 ± 0.82
same,tissue to tissue ratio at 2 h,"[1]; in vivo, Tumor-to-Lung ratio",9.13 ± 1.05
same,tissue to tissue ratio at 4 h,"[1]; in vivo, Tumor-to-Lung ratio",10.3 ± 0.36
same,tissue to tissue ratio at 6 h,"[1]; in vivo, Tumor-to-Lung ratio",9.73 ± 0.51
same,tissue to tissue ratio at 0.5 h,"[1]; in vivo, Tumor-to-Muscle ratio",13.9 ± 1
same,tissue to tissue ratio at 1 h,"[1]; in vivo, Tumor-to-Muscle ratio",16.1 ± 0.83
same,tissue to tissue ratio at 2 h,"[1]; in vivo, Tumor-to-Muscle ratio",22.7 ± 1.04
same,tissue to tissue ratio at 4 h,"[1]; in vivo, Tumor-to-Muscle ratio",32.3 ± 0.36
same,tissue to tissue ratio at 6 h,"[1]; in vivo, Tumor-to-Muscle ratio",21.9 ± 0.51
same,tissue to tissue ratio at 0.5 h,"[1]; in vivo, Tumor-to-Spleen ratio",21.1 ± 1
same,tissue to tissue ratio at 1 h,"[1]; in vivo, Tumor-to-Spleen ratio",27.4 ± 0.82
same,tissue to tissue ratio at 2 h,"[1]; in vivo, Tumor-to-Spleen ratio",38.4 ± 1.04
same,tissue to tissue ratio at 4 h,"[1]; in vivo, Tumor-to-Spleen ratio",51.78 ± 0.36
same,tissue to tissue ratio at 6 h,"[1]; in vivo, Tumor-to-Spleen ratio",35.4 ± 0.51
same,tissue uptake,"[1]; in vivo, uptake in the kidneys, hardly any clearance",~42 %ID/g
same,tissue uptake at 0.5 h,[1],6.22 ± 1 %ID/g
same,tissue uptake at 6 h,[1],2.43 ± 0.51 %ID/g
"CC(C)C[C@@H]1NC(=O)[C@H](CC(=O)O)NC(=O)CNC(=O)[C@H](CCCNC(=N)N)NC(=O)CNC(=O)[C@H]([C@@H](C)O)NC(=O)[C@@H](NC(=O)[C@H](CCCNC(=N)N)NC(=O)CNC(=O)CN2CCN(CC(=O)O)CCN(CC(=O)O)CCN(CC(=O)O)CC2)CSSC[C@@H](C(=O)N[C@@H](Cc2ccc(O)cc2)C(=O)N2CCC[C@H]2C(=O)N[C@@H](CC(=O)O)C(N)=O)NC(=O)[C@H](CC(C)C)NC(=O)[C@H](CCCNC(=N)N)NC(=O)CNC1=O [^177Lu-DOTA-SFLAP3, metal not drawn] ({DOTA}-GRCTGRGDLGRLCYPD-NH2; disulfide 3-13; N-terminus and C-terminus assumed)",binding/internalization late in efflux experiment,carcinoma cell lines,moderate renewed increase of binding/internalization
same,tissue uptake at 1 h,[1]; in vivo,9.1 ± 1.2 %ID/g
same,tissue uptake at 6 h,[1]; in vivo,5.8 ± 1.44 %ID/g

# — patent US20200131227A1, “POLYPEPTIDE WITH TUMOUR BINDING ACTIVITY” (RUPRECHT-KARLS-UNIVERSITÄT HEIDELBERG, priority 2017, published 2020)
